The nature of this series: yeast display, Sf9 membrane polyspecificity reagent, FACS + sequencing; frameworks hold sequencing errors. Summed up: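 Using colony PCR, genes from sorted yeast display clones were amplified, then sequenced on MiSeq at 2 × 250 and filtered by CDR length. The clones had been stained with 10% biotinylated, detergent-solubilized Sf9 membrane reagent for 1 hour at 4 °C and sorted by FACS into low and high (top ~1%) gates on anti-HA and streptavidin fluorescence. Polyreactivity labels come from the gate of origin.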
As to “QVHLVESGGGLVQAGGSLRLSCAASGSTFRPYAMGWYRQAPGKERELVAAITGSGGSTYYADSVKGRFTISRDNAKNTVYLQMISLKPEDTAVYYCNAVSTWRYYYWGQGTQVTVSS”, the “polyreactivity (PSR sort gate)” value was “high polyreactivity”.

Consider “QVHLVESGGGLVQAGGSLRLSCAASGSTFSYYAMGWYRQAPGKERELVAAISRSGGSTYYPDSVKGRFTISRDNAKNTVYLQMNSLKPEDTADYSCNRYYYTVTREFDYWGQGSQVTVSS”, for which the “polyreactivity (PSR sort gate)” value is “low polyreactivity”.

Consider “QVHLVESGGGLVQAGGSLRLSCAASGSTFYENAMGWYIQAPGKERELVAGISRGGGSTYYADSVKGRFTISRDNAKNTVYLQMNSLKPEDSAVYYCAAGSRVQGGYWGQGTQVTVSS”, for which the “polyreactivity (PSR sort gate)” value is “low polyreactivity”.

As to “QVHLVESGGGLVQAGGSLRLSCAASGSTFYYNAMGWYRLAPGKERELVASISYSGDSTYYADSVKGRFTISRVNAKNTVYLQMNSLKPEDTAVYYCNASTSFRSHLGFLYDYWGQGTQVTVSS”, the “polyreactivity (PSR sort gate)” value is on record as “high polyreactivity”.

Consider “QVHLVESGGGLVQAGGSLRLSCAASGYTFKRNAMGWYRQAPGKERELVAAINIRGSSTYYADSVKGRFTISRDNAKNTVYLQMNSLKPEDTAVYYCNAVPRYGYYWGQGTQVTVSS”, for which the “polyreactivity (PSR sort gate)” value is “high polyreactivity”.

For the sequence “QVHLVESGGGLVQAGGSLRLSCAASGYTIRRNAMGWYRQAPGKERELVAAITSGGSTDYADSVKGRFTISRDNAKNTVYLQMISLKPEDTAVYYCAADGIYRGAWSTVYESPGYDYWGQGTQVTVSS”, the “polyreactivity (PSR sort gate)” value is on record as “low polyreactivity”.

With “QVHLVESGGGLVQAGGSLRLSCAATGSTFHYYAMGWYRQAPGKEMELVAAISSSGVSTYYADSVKGRFTISRDNAKNTVYLQMNSLKPEDTAVYYCNSASVFHYRWYYYWGHGTQVTVSS”, the “polyreactivity (PSR sort gate)” value is “high polyreactivity”.

Turning to “QVHLVESGGGLVQAGGSLRLSCAAYGRIFPLYTMGWYRQAPGKEREFVAAISRTGGRTYYADSVKGRFTISRDNAKNTVYLQMNSLKPEDTAVYYCAAPYFGKRQIREYYWGQGTQVTVSS”, the “polyreactivity (PSR sort gate)” value is reported as “high polyreactivity”.

As for “QVHLVESGGGLVQAGGSLRLSCADYGSNLYYKAMGWYRQAPGKEMQVVAAISTGGRTNYADSVKGRFTISRDNAKNTVYLQMNSLKPEDSAVYYCAAETTTEITDTDYDYWGQGTQVTVSS”, the “polyreactivity (PSR sort gate)” value is reported as “low polyreactivity”.

As to “QVHLVESGGGLVQAGGSLRLSCAPSGFIFDYYTMGWYRQAPGKESELVAAITWSGGRTNYADSVKGRFTISRDNAKYTVYLQMNSLKPEDTAVYYCNARRRARGAPYYLYGYSGQGTQVTVSS”, the “polyreactivity (PSR sort gate)” value is “low polyreactivity”.

For “QVHLVESGGGLVQAGGSLRLSCAPSGRTFEQNAMGWYRQAPGKERELVASITSVGSTDYADSVKGRFTISRDNAKNTVYLQMNSLKPEDTAVYYCAKTLGSQKYDFDYWGQGTQVTVSS”, the “polyreactivity (PSR sort gate)” value was “low polyreactivity”.

As for “QVHLVESGGGLVQAGGSLRLSCASSGGIFVTYAMGWYRQAPGKERELVAAITSGDSTYYADSVKGRFTISRDNAKNTVYLQMNSLKPEDTAVYYCAVGSTDRVSAQGSYFTYDYWGQGTQVTVSS”, the “polyreactivity (PSR sort gate)” value is on record as “low polyreactivity”.

Turning to “QVHLVESGGGLVQAGGSLRLSCASSGIIFKTYAMGWYRQAPGKERELVAAISSGGTTYYADSVKGRFTISRDNAKNTVYLQMNSLKPEDTAVYYCAARGYRSGGGYNYWGHGTQVTVSS”, the “polyreactivity (PSR sort gate)” value was “high polyreactivity”.

In the case of “QVHLVESGGGLVQAGGSLRLSCASSGYIIKYNAMGWYRPAPGKERELVAAISSIGGRTYYADSVKGRFTISRDNAKNTVYLQMNRLKPEDTAVYYCNAVGGRYTGWRYDDWGQGTQVTVSS”, the “polyreactivity (PSR sort gate)” value was “high polyreactivity”.

For “QVHLVESGGGLVQAGGSLRLSCASTGFTFSRNTMGWYRQPPGKERELVARISASGGSTYYADSVKGRFTISRDNAKNTVYLQMNSLKPEDTAVYYCAAEGFYRSSPVRTYIGYDYWGQGSQVTVSS”, the “polyreactivity (PSR sort gate)” value is “high polyreactivity”.

Regarding “QVHLVESGGGLVQAGGSLRLSCPASGFTFDNYAMGWYRQPPGKERELVAAINWSGGRTYYADSVKGRFTISRDNAKNTVYLQMNSLKPEDTAVYYCGVPGYVRMDYWGQGTQVTVSS”, the “polyreactivity (PSR sort gate)” value is “high polyreactivity”.

Take “QVHLVESGGGLVQAGGSLRLSCPASGITFEHNAMGWYRQSPGKERELVAAIRWSGGSTYYADSVKGRFTISRDYAKYTVYLQMNSLKPEDTAVYYCAAYKPSTRRYDYWGQGTQVTVSS”: the “polyreactivity (PSR sort gate)” value is listed as “high polyreactivity”.

For “QVHLVESGGGLVQAGGSLRLSCSASGFTFGSNAMGWYRQAPGKERELVAAINYSGLRTYYADSVKGRFTISRDNAKNTVYLQMNSLKPEDTAVYDCAARTSIVTRLRYGYWGQGTQVTVSS”, the “polyreactivity (PSR sort gate)” value was “high polyreactivity”.

On to “QVHLVESGGGLVQAGGSLRLSCSASGRTFGWNVMGWYRQAPGKERELVAAISGSGGSTYYADSVKGRFTISRDNAKTTVYLQMNSLKPEDTAVYYCAALYGPGREYDYWGQGTQVTVSS”, for which the “polyreactivity (PSR sort gate)” value is listed as “low polyreactivity”.

With “QVHLVESGGGLVQAGGSLRLSCSASGSTFNTYAMGWYRQAPGKERELVAAITRGGGGTYYADSVKGRFTISRDNAKNTVYLQMNSLKPEDTAVYYCADKFRYSKYGYWGQGTQVTVSS”, the “polyreactivity (PSR sort gate)” value was “high polyreactivity”.

As to “QVHLVESGGGLVQAGGSLRLSCSASGSTFYAYAMGWYRQARGKERELVARIRWRGGRSYYADSVKGRFTISRDNAKNTVYLQMHSLKPEDTAVYYCAARLYGRYDSQDNYWGQGTQVTVSS”, the “polyreactivity (PSR sort gate)” value is reported as “high polyreactivity”.

For “QVHLVESGGGLVQAGGSLRLSFAASGRTFLRYDMGCYIQAPGKERELVAADSVKGRFTISRDNAKNTVYLQMNSLKAEDPAVYYCAADSTEYTGDASYIGYDYWGQGTHVTVSS”, the “polyreactivity (PSR sort gate)” value is “high polyreactivity”.

As to “QVHLVESGGGLVQAGGSLRLSSAASGFTFPWYAMGWYRQAPGKERELVATITRGGSTYYADSVKGRFTISRDNAKNTVYLQMNSLKPEDTAVYYCAVTYWRYHSYSPYDYWGQGTQVTVSS”, the “polyreactivity (PSR sort gate)” value is listed as “high polyreactivity”.

For “QVHLVESGGGLVQAGGSLRLSSAASGSIFYLNAMGWYRQAPGKERELVATISNGGSTNYADSVQGRFTISRDNAKNTVYLQMNSLKPEDTAVYYCDAASGGTVVGEGDYWGQGTQVTVSS”, the “polyreactivity (PSR sort gate)” value is reported as “low polyreactivity”.

On to “QVHLVESGGGLVQAGGSLRLSSAASGSTFPVYAMGWYRQAPGKERELVASISSGGSTYYADSVQGRFTISRDNAKNSVYFQKNSLKPEDTAVYYCAKDPWVDSFVIYDDWGQGTEVTVSS”, for which the “polyreactivity (PSR sort gate)” value was “low polyreactivity”.

As to “QVHLVESGGGLVQAGGSLRLSSAASGSTFYKNAMGWYRQAPGKERELVAGISRRGGRTYYADSVKGRFTISRDNANNTVYLQMNSLKPEDTAVYYCNTGHEEDEYDYWGQGTQVTVSS”, the “polyreactivity (PSR sort gate)” value is given as “low polyreactivity”.

Consider “QVHLVESGGGLVQAGGSLRLSSAAYGRTFKYNAMGWYRQAPGKRKELVAAISSGGSTYYADSVKGRFTISRDNAKKTVYFQMNSLKPEDTAVYYCAVRNTKSYWFGYWGQGTQVTVSS”, for which the “polyreactivity (PSR sort gate)” value was “high polyreactivity”.

On to “QVHLVESGGGLVQAGGSLRLTCAASGITLDGNAMGWYRQAPGKERELVAAITSGGGTNYADSVKGRFTISRDNAKNTVYLQMNSLKPVDTAVYYCCADKPNDGVGRLYDYWGQGTQVTVSS”, for which the “polyreactivity (PSR sort gate)” value was “low polyreactivity”.

For “QVHLVESGGGLVQAGGSLRLTCAASGLTFIRYAMGCYRQAPGKERELVAAISSYGGTTYYADSVKGRFTISRDKAKNTVYLQMISLKPEDTSVYYCAAVLTYYRGSTWTFSGFAYDHWGQGTQVTVSS”, the “polyreactivity (PSR sort gate)” value is listed as “high polyreactivity”.

With “QVHLVESGGGLVQAGGSRRLSCAASGITYRFYTMGWYRQAPGKEREFVAAITYGVGRTDYADSVKGRFTISRDNAKNTVYLQMNSLNPEDTAVYYCAATWGYGYDYWGQGTQVTVSS”, the “polyreactivity (PSR sort gate)” value is reported as “high polyreactivity”.

“QVHLVESGGGLVQAGGSRRLSCAASGRTVARPAMGWYRQAPGKERELVATITIGGRTYYADSVKGRFTISRDNAKNTVYLQMNSLKPEDTAVYYCAKRISGYRGDYWGQGTQVTVSS”: the “polyreactivity (PSR sort gate)” value is “high polyreactivity”.

Take “QVHLVESGGGLVQAGGTLRLRCAASGSIFCCNAMGWYRQAPGKERELVAAISTSGGTTYYADSVKGRFTISRDNAKNTVFLQMHSLKPEDTAVYYCAADVYSSRYLYDYWGHGTQVTVSS”: the “polyreactivity (PSR sort gate)” value was “low polyreactivity”.

Regarding “QVHLVESGGGLVQAGRSLRLSCAASGFIFKPYAMVRYRQAPGKERELVAAITVNGGTTYYADSVKARFTISRDNAKNTVYLQMNSLKPEDTAVYYCNRGRPGGPSWYHYDYWGQGTQVTVSS”, the “polyreactivity (PSR sort gate)” value was “high polyreactivity”.

“QVHLVESGGGLVQEGGSLRLSCAASGFTFDSYAMGWYRQAPGKERELVASISSSGSTNYADSVKGRFTISRDNAKNTVYLQMNSLKPEDTGVYYCAAESRYPFIYEYWGQGTQVTVSS”: the “polyreactivity (PSR sort gate)” value is listed as “low polyreactivity”.

For “QVHLVESGGGLVQVGGSLRLSCAASGSIFRWYAMGWYRQAPGKERELVAAISSSVGRTYYADSVKGRFTISRDNAKNTVYLQMNSLKPEDTAVYYCAVRYSVVYGTYYYWGQGTKVTVSS”, the “polyreactivity (PSR sort gate)” value is on record as “high polyreactivity”.

As for “QVHLVESGGRLVQAGGSLRLSCAASGRTVVDNAMGWYRQAPGKESQLVAAISSGGTTNFADSVKGRFTISRDIAKNTVYLQMNSLKPEDTAVFYCNTVATYLRSGYGNWGQGTQVTVSS”, the “polyreactivity (PSR sort gate)” value is “low polyreactivity”.

With “QVHLVESGGVLVQAGGRHRISCAASGRTFIQNAMGWYRQAPGKERELVAAISWSGGSTYYADSVKGRFTISRDNAKNTVYLQMNSLKPADTAVSYCAAETYDYLFHTYEYWGQATQVTVSS”, the “polyreactivity (PSR sort gate)” value was “low polyreactivity”.

Consider “QVHLVESGRGLVQAGGSLRLSCAASGRTLYRYAMGWYRQAPGKERELVAAINQSGGRTYYADSVKGRFTISRDNAKNTVYFQMNSLKPEDTAVYYCAASPVRVGKVIDGRDYWGQGTQVTVSS”, for which the “polyreactivity (PSR sort gate)” value was “high polyreactivity”.

On to “QVHLVESGRGLVQAGGSLRLSCAASGSIFESYAIGWYRQAPGKERELVAAISGNSDSTYYADSVKGRFTISRDNEKNTVYLQMNSLKPEDTAVYYCAKEGGNGYDYWGQGTQVTVSS”, for which the “polyreactivity (PSR sort gate)” value is listed as “low polyreactivity”.

For “QVHLVESGRGLVQAGRSLRLSCAASGLTFDWYDMGCYRQAPGKERELVAAITSVGSTYYADSVKGRFTISRDNAKKTVYLQMNSLKPEDTAVYYCGVEGVIWSFWPYEYWGQGTQVTVSS”, the “polyreactivity (PSR sort gate)” value is listed as “high polyreactivity”.

Regarding “QVHLVESGVGLVQAGGSLRLSCAASGFIFYYNAMGWYRQAPGKERELVAAISRTGGSTYYADSVKGRFTISRDNAKNTVYLQMNSLKPEDTAVYYCAAVGSPNRRPSRWEGSWGQGTQVTVSS”, the “polyreactivity (PSR sort gate)” value is “high polyreactivity”.
